The values that follow come from a protein production outcome set (Wang et al. 2014).

The nature of this series: label from the status in PepcDB records.
As for “MFSKLKKTWYADDFSYFIRNFGVFTLIFSTMTLIILQVMHSSLYTSVDDKLHGLSENPQAVIQLAINRATEEIKDLENARADASKVEIKPNVSSNTEVILFDKDFTQLLSGNRFLGLDKIKLEKKELGHIYQIQVFNSYGQEEIYRVILMETNISSVSTNIKYAAVLINTSQLEQASQKHEQLIVVVMASFWILSLLASLYLARVSVRPLLESMQKQQSFVENASHELRTPLAVLQNRLETLFRKPEATIMDVSESIASSLEEVRNMRFLTTSLLNLARRDDGIKPELAEVPTSFFNTTFTNYEMIASENNRVFRFENRIHRTIVTDQLLLKQLMTILFDNAVKYTEEDGEIDFLISATDRNLYLLVSDNGIGISTEDKKKIFDRFYRVDKARTRQKGGFGLGLSLAKQIVDALKGTVTVKDNKPKGTIFEVKIAIQTPSKKKK”, the protein production result is “failed”.
With “MIRHLLVAHDLTPEADVALARAAQLARQHDARVSLLHVYDPGLSASAVKTVSAMLQLKRKEAGLDEDSAIHLFRGQPIDGILQQTRALEPDLLLMGAHHQKTFERFGNTTLDQVVRRSRVPVLLAVREADEPYRQALSALDFSQCACTALRQAYRLLPVEADLHALHVFESPDDGVLGLPRQNAAHLATQAGLIEQLLSDEQERLPGVGPQLSHEVVPGVLPYSLDAALKQRQPELLALGRHSRNALMQALLGNLAQRYLRQPSCDVLVTS” the entry was “failed”; with “MIRERSINLGHQVEGAIFTRHNHIVSVDGDGILSFQNNITKVKPNEAIFIPSKVMVRFSFNSNENKSIKVSLYHINGINLNCKQDKVTSLINAYIEVEKLNLTNRETIIELIGSRLEKIKNNRVLYNYDPLEKKIYRLVSKDLKKKWSLEEVCKLTYTSKSTLNRKLKDNQTSMGQIISNARLDYATILITNTSLSVDEISMLSGFNSTSYFCKKFKESHGFSPKQYRKLLAYNQVPLNRI”, “failed”; with “VARTAEEQANHDLVIEMYNKVLIAMDSSAVDRYIAPGYVQHSSLAEPSVEALKGFLDRVRAESPDARQTIHRSFVDGDHVITHTHVERWPGDAGLAVVDIFRVEGGMIVEHWDVIQDVPANPVNPNSMF”, “not failed”.
Turning to “MSKFTDRIKNVFTVDYDDYDEDYYDDYEDDDMGLEPEKPEKKERATKSRSERFSARRAATRSDDDIIDDYDEVTAEHEEEPAPHVKTRATARAVKNSRSSRNHKVVPMKSSSEMEVCVIKPSYYENTRDIIDTLLEGKSVVLNLEGMKLDLAQRIVDSVSGGCYAIQGNLQKISGYIYLVTPHSVDITGDFQDLVHDSSDYSSTAYSRRNY”, the protein production entry is given as “failed”.
With “MRILFVGPPLYGLLYPVLSLAQAFRVNGHEVLIASGGKFAQKAAEAGLVVFDAAPGFDSEAGYRRQEALRKENNIGTKMGNFSFFSEEMTDPLVAFAGQWRPDLIVYPPLGVVGPLIAAKYDIPVVMQTVGFGHTPWHIKGVTKSLSNAYRRHGVSAPPRDLAWIDVTPPSMSILQNDGEPVISMQYVPYNGGAVWEEWWERTPDRKRLLVSLGTVKPMVDGLDLISWVMDSAGEVDAEIILHLPANARSDLRSLPPNVRLVDWLPMGVFLNGADGFIHHGGAGNTLTALHAGIPQIVFGQGADRPVNARAVVERGCGIIPGKSGLTSSMINTFLGNRALREASQEVAAEMAAQPCPTEVAKKLIAMLQHG” the entry was “failed”.
With “MEAKQAAGALLTVVGVLLILYAIYSGFVNETIGSTEKFSADAAAMIVGWFAVLIGPALLFGETPAAVRKAAGR” the entry was “failed”; with “MISVCIATYNGEKYLAEQLDSILLQVSEEDELIISDDGSTDHTLEILRTYAANYPQIQLLQGPGQGVIANFAFALTHTKGEVIFLADQDDVWLPNKVTTVTEYFETHPDIQVVISDLKIVDADLQVTNPSYFKFRKVKPGFWRNAIKSGYIGAGMAFRQEMKNVILPIPPEVPMHDMWIGLLAARKKQTGLIKEPLVLYRRHGANVSPIITKTSFQQKLNWRVNLLKALHQRLKEQRLEHHHHHH”, “not failed”; with “MPTVSVKWQKKVLDGIEIDVSLPPYVFKAQLYDLTGVPPERQKIMVKGGLLKDDGDWAAIGVKDGQKLMMMGTADEIVKAPEKAIVFAEDLPEEALATNLGYSAGLVNLGNTCYMNSTVQCLKSVPELKSALSNYSLAARSNDVDQTSHMLTVATRELFGELDRSVLRKKYPQFSQLQNGMHMQQDAEECWTQLLYTLSQSLKAPTSSEGADAVKALFGVNLQSRIKLGVLDNVTDSTVISKCTLHCQESGEESSETESVYSLKCHISHEVNHLHEGLKHGLKGELEKTSPALGRTALYVKESLIDSLPRYLTVQFVRFFWKRESNQKAKILRKVDYPLVLDIFDLCSEDLRKKLEAPRQKLREEEGKKLGLQTSAKSGSKDSDVKMTDAEASANGSGESSTVNPQEGTSSEKETHMTGIYDLVAVLTHKGRSADSGHYVAWVKQESGKWIQYDDDNPSMQREEDITKLSGGGDWHMAYITMYKARFVSM”, “failed”.
With “MVIIGSKGCAKEILTALKWDNVEETVSLFDNINTDISDAYYDFPIIKSWNELEQHLKTDSKVIIGVGGGQRREVLARKIACLGGVLTTFISQKALVGGYDNTIEPGVVILSGATITCNVSIGQGTFINKSTVISHDVRIGRYCEVSPGAKVLGRAIIGDRTEIGANAVILPDVIVGADCKIGAGAVVTRNIDSHTTVAGVPARSITKSSNNAFKLKSKIRNLLYHIRIADFRKLREYNHYVFGKRKLMFLELLSHSWMYGASFENYYELQFFKKSRTECRQYLTSSLRHELTRQVNDPCEALVLKDKVRFSEVFEDILGRRVMTFDEIKRQMHDPYSISINEVVIKPIKGQAGQGIIFPMQNFTSLRQLHDYVISTVKKPDEYLYEERIIQHSALNKLNPSSLNTLRIVTYYDESINKVDVWSVVLRIGIKARTDNFATGGIAVLVDHRGVVCQPAIIKHPSGERFHIHPVSGEKITGCIIPYYDQAIALAKQAAMRIPKVRSIGWDVAITETGPYMLEGNDNWCMTLFQLPGGEGLRHLANSVCNMFSVYE” the entry was “failed”; with “MAIQVKASLRKNPQDKKAAGKYYAQVVLAPEMTQRQIIDQIADRCTVTGSDVKAVLDALMTVIKRNLANGSPIRLGDLGSFRPSVSGIGSENVDKFTASNVKKARVIYVPSAEIKEAVAMYAFSKVGATAEGGNTEKPGGGDIDNPGGGDEEAPDPTVLEHHHHHH”, “not failed”.
Regarding “DLEFQKGVEQILNQYFNSELASGNTKYSEGVYAVVLNPNTGAVLSMAGLEHDLKTGEVSSNALGAVTEVFTPGSVVKGATLTAGWENGVLSGNQVLNDQPIQFAGSSPINSWFTNGSTPLTASQSLEYSSNTYMVQLALKLMGQDYHSGMTLSTDGYKEAMEKLRATYAQYGLGVSTGIDLPGESKGYTPEHYDPSNVLTESFGQFDNYTAMQLAQYAAAVANGGKRIAPHLVEGIYDNNKTGGLGNLVQSIDTKVLNNVSISSDDMGIIKEGFYNVVNGGSYATGKTLAKGASVPISAKTGTAEAYVTGDDGKSVYTSNLNVVAYAPSSNPQIAVAVVLPHETDLHGTTSHAITRDIINLYQKMYPMNQ”, the protein production result is “failed”.
The same measure for “MNSLPRPDIGPFADTPEKRWVGVSFGAAAVGYDGVAALQREVGESLLAGIRHLGPPPARMLDLGAGTGHFSGLLVAAFPTAECLALDIAEGMLRFLRSHRPGADGMGLVVGDAEALPLADESVDLIFSNMAFQWCERLDRAISECCRVLRPGGRLAFSTFGEATLAELRMAWRAVDGYTHVNAFATRRSVEQELRAQGFTKIRLDARTLRRGYPSVLALMKELKALGARNLTRNRPRHLLSRHTLERVSEAYGRLPGMASAVTASFEVLTALVEK”: “failed”; for “MLTFAPLNFLAIGVGATLGAWLRWVPGLRLNGAGWPWGTLTANLVGGYLIGVMVALIASHPEWPAWIRLAAVTGFLGGLTTFSTFSAETVDMLERGVYATAAAYAGASLAGSLAMTGLATVRLLLR”: “failed”.
The same measure for “MVRTRLFGTFPHLSRSAQAQRNMTTTYANADPGELEKFSELAHRWWDPNSEFKPLHEINPLRLDWIQSTAPLAGKRVVDVGCGGGILSESMARAGANVKGIDLSRKALRVADLHSLEAGVAVDYEEIAAEALAAREPGSFDVVTCMEMLEHVPDPASVVRACATLVKPGGHVFFSTIHRNAKAYLLAVIGAEYVLNMLPRGTHDYAKFIRPSELAGFARTAGLEPAQLRGLEYNPLTGRYALTHDTSVNYLIATRRPDAP”: “failed”; for “MAPAKSPRAWQRMLSGRRLDLLDPSPLDVEIADIAHGLARVARWNGQTRGDHAFTVAQHCLIVETIFCRMCPGATPDEMQMALLHDAPEYVIGDMISPFKSVVGGGYKTVEKRLEAAVHLRFGLPPHASRELKDRIKKADTVAAFFEATELAGFSTAEAQKFFGLPRGITRDMFDIIPLPSTEAQRLFIARFEAIETLRVTRTGGAV”: “not failed”; for “MPTPIHVLPPHVARLIAAGEVVSRPLDVVRELVENALDAGASRIEIEVDGGGLERVQVRDNGSGIAAQSVPLAPARHATSKLTAGPETGSLSVTTLGFRGEALWAAAQAGELELTTRPAAQVGAARLRAQGDAVEVSRTSAPAGTTVTVSQLFARLPARLRTQASAAAEVRDITALLGRYVLHHSALHWRLTVDGDPRLTHAPADHRGAVATVYGPLSANRVLTLDTPGVRGVVSRPELTRARRDRMHFAVNGRPIVAPPELERAVIDAYAELLPAGTAPLCVLDLTVAPEDYDPNIHPAKQVVALADLPAVALRVRDAVAGALAGHPLVRAAPALIAPPEPHPAPTAGNFPDLTLLGVYQELYLLAQGEGDLWVVDAHAAHERALYERLGRELGTAAPLELPTPELLHLTPEQTARLHERGAELRGWGLTIEDFGAGLARLRTLPAALAALPVPRLHEVVVETALSGGPDPRREVLARLACLPALKAGMLDAERGALVLAALRECEQPWACPHGRPTVLRLSERDLAHAFGRRGVRDVARGRDSVV”: “failed”.
The same measure for “MDMLHAMRTFTRVVECGSFAAAANALDISAAQVSRIVAELENQLQTRLLHRTTRRLRMSEAGERFLERARQIMLLTEEAVGEARGAHLTPRGHLRLHCPHGMGLLLMPLVAGYNMLYPEVVIELTLSQRNPDPLAEGHDVVITVDGALPDSQLIAVPLGNIFSIPCAAPGYLDTHGVPERPEDLHGHRCLRMAYPMYEGDWVFPQGVDQCVIAPNDSFSTNVADAMLVASELGMGIGLLPFYTASEAIGQGRLCRLLAPYRLRESALYAMYPSRHYLDAKVRTWIDYLKEQLPALFEGHARVVDDARYWR”: “failed”; for “MEAEEIIGLLKKGDLEKAKDALSKEIDNLSDEELKEILEVAESVAKEKEDIELLKLVVYYYAEFFGIDKLEEFEGIAKEKGYEGLMHLADLYSLLGYPEKALDIYRELLKTDLIKEKEHIGEIYYGIATIHDELQEYDKALEAINEAVKAFKESNNVEKLHQAEVYRAYITFENGDRDKAKEILAGLLPHVTNREIKAQIHLVFKEIFEDEENYEAAIQESLYSLIEGIDTEVFDLAFDGLIDLIWELILEDKFEEIYKSMPMFKVAIPSLKDFFEGVRRIAMYREGKIGREEVSEILMKVKDERLVSILEFLGEAEV”: “failed”; for “MQIGGRQHGDWTHYSVDSDLVVAADAWQVSLGLPGGVFPPDVEPGAMVKVQVGGETVLMGRIDDISHSVASGSHQLTLSGRDLAGMLLDCSAPLFTGKGMTLQDVLDNVVKPLGIANIRVDAKARGQIEKINVDPGNSAWDVLTRAAQANGLTAWFDPDGTLLVGGPDYSRPASARLILRRDGKGNNVLSLAETRSHAQRYSELTLLGQGHGQSLTPGRHAMRHHVFDSDVCYHKPRIQVEPDAASPAELAARADKMLADARLAGYTLTATVAGHRDSQGALWTPGQRIEVESEPHGINGTYFLMARTFEGGRGQGSVTRLTLKEDKCWIPVMRAGKQ”: “failed”.
